Experimental data published in the domain aggregation screens of Martell et al. (2025).

Test: soluble fraction after stress (log2 fold change); higher = more stays soluble; pooled small domains, quantitative proteomics
Settings: stress: 50 degC
Method in brief: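 Quantitative proteomics served as the high-throughput read-out for pooled custom libraries of small protein domains. Each was stressed at 50°C. Aggregation propensity is expressed as the base-two log fold change in soluble protein after stress. A higher value means a larger share of the protein remains in solution.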

Sequence	soluble fraction (log2)
HMSGMEKLAIQEIEKEIKSFVKGDILIELTGKNRATAYVSEKNVGALIGKKGERINSIEKRLGVGIDVRPY	0.00444
HMAEPYDERKVMEQMIPKGKNTIVAHLGHLKDHGETGYLQEALSYLRERESELGFDLKEVRALVHN	0.251
HMSEYITEGWLREKFGLGWGTEVHLPLDSRLTPAAHQLLEERKIVIKYIDAEGRVFNPDKSGEEAPVQ	0.0587
HMSKSKSEIDKDPHFWSSLFQRIGEGESLRKIAKDSKIPKSTLWAWIRNDPQLALRYSEAQQ	0.064
HMDLPSSETLKVKLNLAKAYVTIEDFGAARRALDEVLSVSSLVDPDLTIQAKSLLAEIDQRS	-0.0514
HMVRTIKILGIKHNINLYYKNVKVPTMNVKNQTLEIILPNKYKKFQEEQILKVLTQKLYDKIAETEIEKIK	-0.465
HMSLLQTRQRHEALAALGFFKGDVAAEWSAASTEALRAAQASLGIRVDGKWGPQTEDAIGKALAERQG	-0.102
HMFGGIEFGWSQLPDGRVEYIIQLDDQAIAALKNGRSLTSSLPPEVQNADRIRIQYGAGPVEKGLLLQ	0.0674
HMNTAIDGLIEKVGMFAMEKKAISVDQVKENFSINGEQAESVIKQLETIGVLGKKNEDGTHTVM	0.0766
HMETITDRLNRRSLELNVSQADIIRTTGAGRGTVSGWFSGANAPSAKYLESLAVALKTSTTWLLSGKD	-0.741
HMDYKYYIVKEPMVVKNLELPVGTRIVYFNTSLFGDSESSRPLKEKNIYQIFFPDDKPLIWGGVPVSLIER	-1.97
HMSATQDAAIAVRIRDILSELDGYEDVTVTVTSGIVTMRGTTLDSEKIARLNDLTGRVEGVVAIENSVTET	-0.367
HMKTTKLEELDMQKEFILKNGKYGFGVYIGGKYIGLTDIGTVNSFKDSLQLPVVSLSDIDFKTFAEKF	-0.757
HMGELRAPLPGVIVSIPVKEGDEVKAGQAILIIEAMKMESEISSPIDAKVAKIVVKERVLVQEGDILIILE	-0.702
HMKLASIGDNIHTLRKNKGLTQSQLAGKLGVNVDTISNYEKGVSTPDFDIVEKLVNIFNVDAHSLLFK	0.127
HMINEVVSLRDVPSFIGKAKRDVIRIAEENNLKIKINGNGYVKEQTPNPGNKYKSNQEIKVFLEPG	0.0894
HMVSGLEILKIQVQDHPSDWRWALLLARTHYENGNREAAVRTLRPLQRLHPDRLEVMTLWALLA	-0.00253
HMFAQDKKFITYKVKEGETVQSISKALSITPYDLLKLNPDIKDNVSQDDLLIIPNKQYDPLGDI	0.144
HMEIHQVEFGGKVISFVLERKPVKNVNLHIKPDMTVMVSANEKVPLDFILGFVKQKAAWILKNIQFFEDV	-1.25

Sequence	soluble fraction (log2)
HMTYKHLTIDEMKRFLSTREDSQSALVQFARVENVVGNRKGKYAVIKKWFLKNYKEEYNAFLS	-0.17
HMHAPRIEVVQIDPEKIGALIGPGGKNIRRITEVTGANLDIDEDNSGKIRVYASDSEAMNRALQEIDLVT	0.193
HMDNMFMPPVNGWDVRQALQKLQNEMGLQVKMEYSPSETITEGYVISYTPIDGMKVEKGDEVTLVISTGPE	0.225
HMQDKLLRKKEVLEMVSITNSTMYRMIGSGQFPRPIRLDNANINSGVRWKLSEINTFIEQRF	-0.409
HMDTSKIDYSEFITMLDKGEVESVVLKSDTLTVTLKHGTGMAAQTKTVTLMEDLSELTKRLEKAGVKSFDK	0.306
HMIQNTGMMESGDSIRGMALDAGFPLLMVVGYRGWTRKGNTPDSAAVYTEPFLNAFRLNYYLVEHDE	0.309
HMGYTTSFVVQLKNAVSISFDEIDQNLRKLPGVEDVVIVEEAAMAYLKVDRQHFREEQLAHFEFVRQ	-0.29
HMAKSKYETHVLPNLDKIIKWAKAGATAKEIAANLHIAYSTFRKYLDEGQEGDERYAALSAAFAQA	0.321
HMTTGEIIQRERTRLGLSQEKLAEQVGVSRQAVSKWELGDAVPDTDKLVPLARTLGISVDTLLD	0.0247
HMNSKMTYSELITSMENKEVESVKISSSGDVASVKLKNSKTEKEVKIPSLDSFMTYTEQYLKTGEITLEE	0.175
HMGLNNVSDILRLDFNSFKKKFDKLPSGYKNSVVEQAALMIKSGELDSIKIKDYIEKSMGIELDI	-0.27
HMDSRVRHAVLTTLLGKRIVDDLVEKGELPGTPLVLATAPGLDRDLEQLIAQRVVTALLTTV	-0.082
HMNEKGTNSTINEITRISKPGRRVYVGSAEIPKVKSGRGLVLISTSKGVMTGAEAAKAKLGGELLLKV	0.0901
HMISQATMEKMGLTNRERQLVDFIVRGASNQEISEKMFISINTVKIHVSNIFRKAGVRSRTELMDKYP	-3.49
HMRPEKLVLKALRGAHGPLSAEEVAGRIEADGGAGLDVARVEHVLGQLERSGTVAALGGGKYLALR	0.281
HMGMLATFVTSAKVPDDVVYAITKEVFENLDEFKKLHPALEGLTRETMLEGLTAPIHPGALKYYKEAGLM	-0.522
HMQRYFINEPVPEDQRLVLPKDIAHHLVDVLRAEQNDELEVALNDQKVYLARLISLNPATVELQSDLG	0.266
HMEKGWYKLGQDSYYVDDDGKIHKGWLELDGKKYYFDQEGKMVTGTVNIDGKDYTFNEKGELYVS	0.183
HMDRMFQPETWSKIYQWVMNDPQVPDKEDVLALIRRHFGNFEKLIKLLHYLDGGKPYAYLSEH	-0.115
